The target in assay [1] is factor V (FV) (human (endogenous in human plasma)).
Assay [2] addresses mannan binding lectin-associated serine proteases (MASPs) (human (endogenous in human serum)).
Assay [3] deals with mannan-binding lectin (MBL) (human (endogenous in human serum)) (UniProt P11226).
Assay [4] has the same target. The source holds these as a separate data set.

UniProt P11226, sequence (P11226 21-248): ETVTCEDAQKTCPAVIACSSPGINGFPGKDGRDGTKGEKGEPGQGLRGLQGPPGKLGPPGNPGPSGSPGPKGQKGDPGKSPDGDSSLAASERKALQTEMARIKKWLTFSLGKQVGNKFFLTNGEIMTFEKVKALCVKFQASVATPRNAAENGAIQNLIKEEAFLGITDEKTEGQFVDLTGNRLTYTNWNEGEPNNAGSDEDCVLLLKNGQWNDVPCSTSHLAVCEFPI

For the molecule “D70-L104 Salp14 (from UniProt Q95WY7 91-125) (peptide)”, the decrease of prothrombinase activity in the FV(a) inhibition assay (1/1000 diluted human plasma, 20 pM FXa, 100 nM peptide) in assay [1] amounted to 40 % decrease. The EC50 of inhibition of lectin pathway activation in human serum (mannan-coated wells, ELISA, C4b deposition) in assay [2] came out at 17 µM.

Take “tick salivary lectin pathway inhibitor (TSLPI) from Ixodes scapularis (natural protein)”: in assay [3], the EC50 of inhibition of lectin pathway activation in human serum (mannan-coated wells, ELISA, C4b deposition) amounted to 25 µM. The same molecule displayed an EC50 of inhibition of MBL deposition on mannan-coated wells from human serum (ELISA, anti-MBL antibody) in assay [4] of 90 µM.

B1: BaSO4-adsorbing protein 1 (BSAP1) from Ornithodoros savignyi (natural protein)
chain: MDSEFPCPRKQQPAGNSECSYYCEMNGQWKLGKFQNGARCDYNAVKDGVCNEGLCYASGDSASNTQNQGGSRRQENEDQGDDEWDRK
B1 yielded an EC50 of inhibition of lectin pathway activation in human serum (mannan-coated wells, ELISA, C4b deposition) in assay [3] of 8 µM. In assay [4], this molecule had an EC50 of inhibition of MBL deposition on mannan-coated wells from human serum (ELISA, anti-MBL antibody) of 26 µM.

The record behind these values is PMC8294578.
